T1: recombinantly expressed purified soluble WNV E protein (truncated form, strain 382-99) (West Nile virus strain 382-99, UniProt Q9Q6P4 291-696)
T1 construct: also called recombinant WNV-E protein; truncated E protein
T1 sequence: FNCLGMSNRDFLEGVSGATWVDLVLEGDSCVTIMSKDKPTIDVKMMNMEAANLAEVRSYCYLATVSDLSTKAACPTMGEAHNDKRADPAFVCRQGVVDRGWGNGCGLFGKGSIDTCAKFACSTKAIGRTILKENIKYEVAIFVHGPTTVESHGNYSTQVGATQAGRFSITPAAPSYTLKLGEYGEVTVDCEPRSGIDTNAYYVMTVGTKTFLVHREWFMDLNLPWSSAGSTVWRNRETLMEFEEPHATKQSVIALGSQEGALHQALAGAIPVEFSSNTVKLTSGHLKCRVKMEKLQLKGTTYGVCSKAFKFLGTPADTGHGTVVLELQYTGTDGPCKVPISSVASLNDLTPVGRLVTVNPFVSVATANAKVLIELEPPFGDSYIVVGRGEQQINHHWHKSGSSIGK

B1: SC04-283 (scFv)
scFv: EVQLVQSGAEVKKSGESLKISCKGSGYTFNTYWIGWVRQMPGKGLEWMGIIYPGDSDTIYSPSFQGQVTISADKSISTAYLQWSSLKASDSAMYYCARLTFRRGYSGSDSFLPPGDFDYWGQGTLVTVSSGTGGSGGTGSGTGGSTDIQMTQSPSTLSASVGDRVTITCRASQSISSWLAWYQQKPGKAPNLLIYAASSLQSGVPSRFSGSGSGTDFTLTISSLQPDDSATYYCQQYNTYPLTFGGGTKVEIKR
B2: SC04-289 (scFv)
scFv: QMQLVQSGAEVKKPGESLRISCKGSGYSFTSNWITWVRQMPGKGLEWMGRIDPSDSYTNYSPSFQGHVTISADKSISTAYLQWSSLKASDTAMYYCARDVVGVGASDYYYYMDVWGKGTTVTVSSGTGGSGGTGSGTGGSTEIVLTQSPGTLSLSPGETATLSCRTSQSVSSSYLGWYQQKPGQAPRLLIYGASIRATGIPARFSGSGSGTEFTLTIDSLQSEDFAVYYCQQYNNWPPITFGQGTRLEIKR
B3: SC04-311 (scFv)
scFv: EVQLVQSGGGVVQPGRSLRLSCVASGFTFSKDAMHWVRQAPGKGLEWVAVISYDGSDKHYADSVKGRVTISRDNSRKTLYLRMDSLRAEDTALYYCARGYNSGHYFDYWGQGTLITVSSGTGGSGGTGSGTGGSTQSVLTQPPSVSAAPGQKVTISCSGTSSNIGDNYVSWYQHLPGTAPKLLIYDNNKRPSGIPDRFSGSKSGTSATLGVTGLQTGDEADYYCGTWDSSLTAVVFGGGTKLTVLG
B4: SC04-299 (scFv)
scFv: EVQLVETGGGVVQPGRSLRLSCAASGFTFSGYAMHWVRQAPGKGLDWVAVISYDGSEKYSADSVKGRFTISRDNSKNTLYLQMNSLRAEDTAVYYCAKESGGPIWYKYYGVDVWGQGTTVTVSSGTGGSGGTGSGTGGSTSYVLTQPPSLSAAPRQRVTISCSGSSSNIGNYGVNWYQQLPGKAPKLLIYYDDLLPSGVSDRFSGSKSGTSASLAISGLQSEDEGDYYCAAWDDTLSAWVFGGGTKLTVLG
B5: SC04-271 (scFv)
scFv: EVQLVETGAEVKKPGESLRISCKGSGYTFNNYWIGWVRQMPGKGLEWMGIIYPGDSDTRYSPSVQGHVTISADKSINTAYLQWSSLKASDTAVYYCARRPGYDYGFYYFDYWGQGTLVTVSSGTGGSGGTGSGTGGSTQSALTQPRSVSGSPGQSVTISCTGTSSDVGGYNYVSWYQHHPGKAPKLMIYDVSNRPLGVSNRFSGSKSGNTASLTISGLQAEDEADYYCSSYTSSSTYVFGTGTHLTVLS
B6: SC04-353 (scFv)
scFv: EVQLVQSGGGVVQPGRSLRLSCAASGFTFSNYAMHWVRQAPGKGLEWVAVISYDGGNKYYADSVKGRFTMSRDNSKNTLYLQMNSLRAEDTAVYYCARDFWSGYSMVDSYYYYMDVWGKGTTVTVSSGTGGSGGTGSGTGGSTETTLTQSPGTLSLSPGERATLSCRASQSVSNTFLAWYQQKPGQAPRLLIYGASSRATGIPDRFSGSGSGTDFTLTISRLEPEDFAAYYCQQYGSSLTFGPGTKVDIKR
B7: SC04-374 (scFv)
scFv: QVTLKESGPTLVKPTQTLTLTCTFSGFSLSTSGVGVGWIRQPPGKALEWLAVIYWNDDKLYRPSLKSRLTITKDTSKNQVVLTMTKMDPVDTATYYCAHRHRYYDISGYYRLFSDAFDIWGQGTMVTVSSGTGGSGGTGSGTGGSTQSVVTQPPSVSGAPGQRVTISCTGSSSNIGAGYDVHWYQQLPGTAPKLLIYGNSNRPSGVPDRFSGSKSGTSASLAITGLQAEDEADYYCQSYDSSLSGSVFGGGTKLTVLG
B8: SC04-325 (scFv)
scFv: QMQLVQSGAEVKKPGSSVKVSCKASGDTFSSYAISWVRQAPGQGLEWMGGIFGTASYAQKFQGRVTITADESTSTAYMELSSLRSEDTAVYYCARGGMATTPGLDYWGQGTLVTVSSGTGGSGGTGSGTGGSTDIQLTQSPDSLAVSLGERATINCKSSQSVLYSSNNKNYLAWYQQKPGQPPKLLIYWASTRESGVPDRFSGSGSGTDFTLTISSLQAEDVAVYYCQQYYSTPLTFGQGTKVEIKR
B9: SC04-361 (scFv)
scFv: EVQLVQSGAEVKKPGESLKISCKASGFSFSTYWIGWVRQMPGKGLEWMGIIYPADSDTRYSPSFQGQVTISADKSISTAYLQWSSLKASDTAMYYCARLRGPYYDFWNGYRETHDAFNVWGQGTMVTVSSGTGGSGGTGSGTGGSTDVVMTQSPDSLAVSLGERATINCKSSQNILDNSDNKNFLAWYQQKPGQPPKLLIYWASARESGVPDRFSGSGSGTDFTLTISSLQAEDVALYYCQQYYNTPITFGQGTRLEIKR

Target: T2, West Nile virus strain USA99b (strain 385-99), whole virus (West Nile virus strain 385-99 (USA99b))
T2 construct: mature
Assay: phage ELISA on coated whole inactivated WNV

Binder	OD 492 nm
B1	1.21 OD
B2	0.759 OD
B3	1.04 OD
B4	1.07 OD
B5	0.984 OD

Target: T1, recombinantly expressed purified …
Assay: phage ELISA on coated recombinant soluble WNV E protein

Binder	OD 492 nm
B1	0.074 OD
B2	1.39 OD
B6	0.099 OD
B7	1.36 OD
B8	1.4 OD
B9	0.076 OD
B3	1.54 OD
B4	0.072 OD
B5	0.608 OD

From patent US7537764
